From US5414076
Where “and” joins values, the source holds several entries; their conditions need not be identical. Equal values may be shown once.

Target: human GALV receptor protein (gibbon ape leukemia virus receptor) (human)

Substance: gibbon ape leukemia virus
- Foci/3 × 10^4 Cells (PG4 indicator cells) after exposure to GALV (foci/3 × 10^4 cells): 382 and 1000
